Experimental findings from patent US20250171542A1 (ADEPT THERAPEUTICS, published 2025) are described below.

For experiment [1], the target named is T1, PD-L2 (Sino Biological, Cat #10292-H08H) (UniProt Q9BQ51 20-219).
T1 sequence (looked up): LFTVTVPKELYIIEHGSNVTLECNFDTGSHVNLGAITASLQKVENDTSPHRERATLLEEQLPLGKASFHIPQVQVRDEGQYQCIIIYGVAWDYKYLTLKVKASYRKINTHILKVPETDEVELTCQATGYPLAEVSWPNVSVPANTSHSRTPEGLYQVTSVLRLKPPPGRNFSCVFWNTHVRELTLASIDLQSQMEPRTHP
The experiment is described as follows: ELISA. (In general: In an ELISA, binding on a coated surface is turned into a signal by an enzyme label.)

In experiment [2] the target is T2, human PD-L1 expressed on cell surface (human, UniProt Q9NZQ7 19-290). The experiment is described as follows: cell-based or functional assay.
In experiment [3] the target is T3, human PD-L1-His (Sino Biological, Cat #10084-H08H) (human, UniProt Q9NZQ7 19-238).
T3 construct: Bought protein; also called human PD-L1 ECD-His; recombinant human PD-L1-His protein; not shown: His tag
The experiment is described as follows: ELISA, coated human PD-L1-His. As to the method: Briefly, Maxisorp plates (Nunc) were coated with 100 ul/well of 0.5 μg/ml human PD-L1-His (Sino Biological, Cat #10084-H08H) or cynomolgus PD-L1-His (Sino Biological, Cat. 90251-C08H) protein diluted in 1×PBS (GIBCO) overnight at 4° C. Plates were washed three times with 300 μl/well washing buffer (1×PBST, diluted from 20×PBST (Thermo Scientific) with distilled water)) and then blocked with 300 μl/well of blocking buffer (1×PBST/I % BSA) for 2 hours at RT on shaker (100 rpm). Plates were washed and added with 100 μl/well of testing antibodies, which were serial diluted with assay buffer (PBST/1% BSA). The antibodies were incubated at room temperature for 2 hours on plate shaker at 100 rpm. Plates were washed. One hundred microliter of horseradish peroxidase (HRP) conjugated detection antibody was added into each well and incubated at room temperature for 1 hour on plate shaker at 100 rpm. Plates were washed and added with 100 μl/well TMB substrate for color development at room temperature in dark for up to 10 minutes. After addition of 50 μl/well of stop solution (1N H₂SO₄), plates were read at 450 nm on a plate reader (SpectraMax M5).
Anti-HEL isotype control (Biolntron) was used as negative control.

Experiment [4] addresses T4, cynomolgus PD-L1-His (Sino Biological, Cat. 90251-C08H) (cynomolgus, UniProt Q9NZQ7 19-238 (human entry)).
T4 construct: Bought protein; also called Cyno PD-L1; Cynomolgus PD-L1 ECD-His; not shown: His tag
The experiment is described as follows: BLI (Gator), cynomolgus PD-L1.

The target of experiment [5] is T3, human PD-L1-His (Sino Biological, Cat …). Put plainly: BLI (Gator), antibody on HFC probe, human PD-L1-His in solution. As to the method: The affinity of the binding of the exemplary anti-PD-L1 antibodies of the present disclosure was determined. Assay was performed according to the protocol recommended by Gator or Gator Plus (Gator Bio Inc.). Briefly, human PD-L1-His (Sino Biological, Cat #10084-H08H) was serially diluted 4-fold, starting at 4 μg/ml. After three times of regeneration in generation buffer (Gator Bio, Cat #120012) and neutralization of HFC probe (Gator Bio, Cat #160003), 1 μg/ml of antibody to be tested in Q buffer (Gator Bio, Cat #120010) was immobilized onto HFC probe. After a baseline step, probe immobilized with antibody was dipped into antigen solutions. The association and dissociation of antigen from antibody was measured on BLI machine Gator. Affinity was calculated using Gator Bio analysis software.
Table 22 below summarizes the binding affinity to human PD-L1 using Gator.

Experiment [6] concerns the target T5, human PD-L1-mFc fusion protein (Sino Biological, Cat #10084-H05H) (human, UniProt Q9NZQ7 19-239).
T5 construct: Bought protein; also called human PD-L1 mouse Fc fusion protein; not shown: mouse Fc
The experiment is described as follows: competition ELISA, coated human PD-L1-mFc, competitor human PD-1-His-hFc-Biotin. As to the method: Briefly, microplates were precoated with […] of human PD-L1-mFc fusion protein (Sino Biological, Cat #10084-H05H) diluted in 1×PBS (GIBCO) and incubated overnight at 4° C.; Plates were washed four times with 300 μl/well washing buffer (1×PBST, diluted from 20×PBST (Thermo Scientific) with distilled water)) and then blocked with 300 μl/well of blocking buffer (1×PBST/3% BSA) for 2 hours at RT on shaker (100 rpm). […] Plates were washed and added with 100 μl/well TMB substrate for color development at room temperature in dark for up to 10 minutes. After addition of 50 μl/well of stop solution (1N H₂SO₄), plates were read at 450 nm on a plate reader (SpectraMax M5).

Experiment [7] deals with T3, human PD-L1-His (Sino Biological, Cat …). Put plainly: competition ELISA (epitope binning): coated human PD-L1-His, antibody pre-incubated, then biotinylated Avelumab (competitor), detection with HRP-avidin.
Experiment [8] concerns the target T2, human PD-L1 expressed on cell surface. Put plainly: cell-based or functional assay. The source holds these as a separate data set.

T3 sequence (Q9NZQ7 19-238): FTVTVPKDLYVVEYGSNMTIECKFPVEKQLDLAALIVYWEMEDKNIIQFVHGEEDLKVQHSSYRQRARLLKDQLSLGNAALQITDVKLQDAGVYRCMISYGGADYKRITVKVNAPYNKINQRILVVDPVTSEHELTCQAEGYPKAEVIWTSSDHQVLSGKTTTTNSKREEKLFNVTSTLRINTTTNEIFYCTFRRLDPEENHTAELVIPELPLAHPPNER
T2 sequence (Q9NZQ7 19-290 limits assumed): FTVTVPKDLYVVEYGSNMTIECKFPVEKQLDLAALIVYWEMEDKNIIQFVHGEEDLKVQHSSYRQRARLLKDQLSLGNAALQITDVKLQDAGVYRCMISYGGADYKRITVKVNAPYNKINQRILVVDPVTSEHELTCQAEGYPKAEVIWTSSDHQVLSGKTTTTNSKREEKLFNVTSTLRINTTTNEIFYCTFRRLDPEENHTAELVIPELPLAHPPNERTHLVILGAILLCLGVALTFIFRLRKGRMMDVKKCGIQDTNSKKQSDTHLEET
T4 sequence (Q9NZQ7 other isoform, or with tags, fused parts or gaps C08H C08H limits assumed): as the sequence (Q9NZQ7 19-238) above, with A33T, A34S, S62N, R68Q, Q82R, F173L, T185A, T192I, H215L counted along it
T5 sequence (Q9NZQ7 19-239 limits assumed): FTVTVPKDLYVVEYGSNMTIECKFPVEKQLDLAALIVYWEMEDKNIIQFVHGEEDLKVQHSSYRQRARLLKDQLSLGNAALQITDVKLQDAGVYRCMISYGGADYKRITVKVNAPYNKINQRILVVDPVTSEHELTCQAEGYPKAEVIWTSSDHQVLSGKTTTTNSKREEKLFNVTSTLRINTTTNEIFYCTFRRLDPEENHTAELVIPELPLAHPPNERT

B1: 56H3 (antibody, human IgG1, V domains shown)
VH: QEQLVESGGGLVQPEGSLTLTCTASEFSFSNNYYMSWVRQAPGKGLEWLGSIGIGSGITDYASWAKGRFTISKASSTTVTLQMTTLTAADTAIYFCARWTSGGGGFGLWGPGTLVTVSS
VL: QVLTQTSSPVSAAVGGTVTINCQSSQTIYSDYLFWYQQKPGQPPKLLIYQTSTLASGVPSRFSGSGSGTQFTLTISGVQCDDAATYYCQGYYSGYIWTFGGGTEVVVN
Regarding B1, the binding result in experiment [1] is reported as “no binding”. Moreover, the “IC50 (nM), Promega PD-1/PD-L1 blockade reporter assay” value in experiment [2] amounted to 0.36 nM. Besides, the response in experiment [3] was half-maximal at 0.0172 nM (EC50). In experiment [4], the Kd worked out at 0.25 nM, the koff was determined as 8.7e-05 s⁻¹ and the kon worked out at 349000 M⁻¹ s⁻¹. In experiment [5], this molecule showed a Kd of 0.58 nM, a koff of 0.000399 s⁻¹ and a kon of 686000 M⁻¹ s⁻¹. In experiment [6], the IC50 stood at 2.1 nM. In addition, the “IC50 (read off the curve)” value in experiment [7] is approximately 0.1 µg/mL.

B2: 28B3 (antibody, human IgG1, V domains shown)
VH: QSVEESGGRLVTPGTPLTLSCTASGFSLSSYYMIWVRQAPGKGLEYIGYVYTGSGNTWYASWAKGRFAISKASTTVDLMITSPTTEDTATYFCASGADGVYDWGWDIWGPGTLVTVSL
VL: DIVMTQTPASVEAAVGDTVTIKCQASQSIYSLLAWYQQKPGQRPKLLIAGASNLESGVPSRFSGSGSGTEYTLTISALECADAATYYCQNNYDSGRIYGLAFGGGTEVVVK
As to B2, the binding result in experiment [1] is recorded as “no binding”. In experiment [2], the “IC50 (nM), Promega PD-1/PD-L1 blockade reporter assay” value stood at 0.24 nM. The “IC50 (nM), Promega PD-1/PD-L1 blockade reporter assay, another assay” value in experiment [8] is 0.33 nM. The molecule further showed an EC50 in experiment [3] of 0.0159 nM. Moreover, in experiment [4], the Kd was found to be 0.33 nM, the koff was determined as 0.000132 s⁻¹ and the kon is 403000 M⁻¹ s⁻¹. In addition, in experiment [5], binding was characterised by a dissociation constant (Kd) of 0.09 nM, the koff came to 7.6e-05 s⁻¹ and the kon is 810000 M⁻¹ s⁻¹. The molecule further had an IC50 in experiment [6] of 1.5 nM.

The EC50 is the concentration needed to bring the measured effect to its halfway point. Lower therefore signals greater potency. Broadly, the Kd is the constant that tells how readily two partners part at equilibrium. Low values mean higher affinity, high ones lower affinity. The koff is a measure of how fast the partners let go of each other. As usually defined, the kon is the rate constant with which the complex forms. The term IC50 denotes the concentration that inhibits the measured activity by half. A lower IC50 goes with greater potency in that assay.
